From US20040091907

Key:
[1] = target: GST-Maguin-2-like fusion protein (amino acids 385-555) [GST: P08515]
GST-GEF-H1S (aa763-921) = target: T1, GST-GEF-H1S (aa763-921)
T1 chain: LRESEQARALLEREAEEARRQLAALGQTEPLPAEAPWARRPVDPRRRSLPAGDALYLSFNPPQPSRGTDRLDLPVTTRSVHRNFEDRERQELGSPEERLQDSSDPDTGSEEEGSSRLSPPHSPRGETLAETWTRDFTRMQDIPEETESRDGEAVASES

[2] = target: T2, GEF-H1 peptide, amino acids 807-824 (unphosphorylated)
T2 chain: RRRSLPAGDALYLSFNPP

[3] = target: T3, GEF-H1 peptide, amino acids 55-72
T3 chain: RQSLLGSRRGRSSLSLAK

[4] = target: T4, GEF-H1 peptide 807-824 with phospho-serine at position 810
T4 chain: RRRSLPAGDALYLSFNPP

[5] = target: GST (Glutathione-S-transferase) [GST: P08515]
Sequence of GST (Glutathione-S-transferase) [GST: P08515] (P08515 whole entry): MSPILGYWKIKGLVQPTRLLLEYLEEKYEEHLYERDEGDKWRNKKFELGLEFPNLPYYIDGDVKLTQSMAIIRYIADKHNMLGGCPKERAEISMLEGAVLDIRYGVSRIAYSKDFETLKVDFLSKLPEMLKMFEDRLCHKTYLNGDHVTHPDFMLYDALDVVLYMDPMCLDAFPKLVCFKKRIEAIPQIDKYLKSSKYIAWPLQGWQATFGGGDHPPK

Sequence of GST-Maguin-2-like fusion protein (amino acids 385-555) [GST: P08515] (P08515 whole entry, looked up, the tested form may be a part): as the sequence (P08515 whole entry) above

B1: Glutathione-s-transferase (GST) fused PAK4 (residues 291-591) (protein)
chain: SPQREPQRVSHEQFRAALQLVVDPGDPRSYLDNFIKIGEGSTGIVCIATVRSSGKLVAVKKMDLRKQQRRELLFNEVVIMRDYQHENVVEMYNSYLVGDELWVVMEFLEGGALTDIVTHTRMNEEQIAAVCLAVLQALSVLHAQGVIHRDIKSDSILLTHDGRVKLSDFGFCAQVSKEVPRRKSLVGTPYWMAPELISRLPYGPEVDIWSLGIMVIEMVDGEPPYFNEPPLKAMKMIRDNLPPRLKNLHKVSPSLKGFLDRLLVRDPAQRATAAELLKHPFLAKAGPPASIVPLMRQNRTR
For B1, the “phosphorylation in an in vitro kinase assay” value [1] was “weakly phosphorylated the GST-Maguin-2-like fusion protein”, the “Km (in vitro kinase assay)” value (GST-GEF-H1S (aa763-921)) was “Km is the 1 to 5 uM range” and the “phosphorylation in an in vitro kinase reaction (SDS-PAGE, autoradiograph)” value (GST-GEF-H1S (aa763-921)) was “The autoradiograph showed phosphorylation of the GEF-H1S polypeptide”. For the same protein, the “Km (in vitro kinase assay)” value [2] was “also a high affinity substrate for PAK4 with a similar Km for PAK4 as the GST-GEF-H1 (793-921) fusion protein”, the “phosphorylation in in vitro kinase assays” value [2] was “are phosphorylated by PAK4” and the “phosphorylation in in vitro kinase assays” value [3] was “are phosphorylated by PAK4”. For the same protein, the “phosphorylation in an in vitro kinase assay” value [4] was “Peptides with phospho-serine at position 810 were no longer substrates for PAK4”, the “phosphorylation in an in vitro kinase assay” value [5] was “PAK4 fails to phosphorylate the GST control” and the “phosphorylation in an in vitro kinase reaction (SDS-PAGE, autoradiograph)” value [5] was “no phosphorylation of the fusion partner GST”.
